In one assay the target is HLA-B*44:03. Briefly: IEDB peptide-MHC binding, purified MHC/competitive/radioactivity; filed as Kd, often an IC50 or EC50 that approximates it; ≥ and ≤ were set here for values at or beyond the usual limits of such assays. The settings on record: source organism: Dengue virus 2 Jamaica/1409/1983.
Another assay addresses HLA-B*45:06. Kind of assay: IEDB peptide-MHC binding, purified MHC/competitive/fluorescence; filed as Kd, often an IC50 or EC50 that approximates it; ≥ and ≤ were set here for values at or beyond the usual limits of such assays.
In another assay the target is HLA-B*15:42. The description is as above.
The target in the next assay is HLA-B*83:01. The description is as above.
The target of the next assay is HLA-C*04:01. Described as above.
Another assay addresses HLA-B*44:02. Briefly: IEDB peptide-MHC binding, purified MHC/direct/fluorescence; filed as Kd, often an IC50 or EC50 that approximates it; ≥ and ≤ were set here for values at or beyond the usual limits of such assays. The settings on record: source organism: dengue virus type 1.
The target in another assay is HLA-B*18:01. Described as above.
A further assay concerns the target HLA-B*15:09. Briefly: IEDB peptide-MHC binding, purified MHC/competitive/fluorescence; filed as Kd, often an IC50 or EC50 that approximates it; ≥ and ≤ were set here for values at or beyond the usual limits of such assays.
For assay [1], the target named is HLA-A*69:01. Briefly: IEDB peptide-MHC binding, purified MHC/direct/fluorescence; filed as Kd, often an IC50 or EC50 that approximates it; ≥ and ≤ were set here for values at or beyond the usual limits of such assays. As to conditions: source organism: Mycobacterium tuberculosis.
The target of assay [2] is HLA-B*15:01. The assay is described as above.
The next assay concerns the target HLA-A*11:01. The description is as above.
Assay [3] addresses HLA-B*08:01. The assay is described as above. The settings on record: source organism: Mycobacterium tuberculosis str. Haarlem.
The target in a further assay is HLA-B*15:17. The description is as above.
The next assay deals with HLA-B*57:01. Described as above.
The target in the next assay is HLA-A*01:01. Described as above.
For another assay, the target named is HLA-B*58:01. The assay is described as above.
In the next assay the target is HLA-B*27:05. The assay is described as above.
For a further assay, the target named is HLA-B*40:01. The assay is described as above.
For another assay, the target named is HLA-A*26:01. Described as above. As to conditions: source organism: Mycobacterium tuberculosis str. Haarlem.
For another assay, the target named is HLA-B*48:01. The assay is described as above.
For a further assay, the target named is HLA-A*03:01. The assay is described as above.
A further assay deals with HLA-A*31:01. The description is as above.
Assay [4] has as its target HLA-A*02:01. The assay is described as above.
The target in the next assay is HLA-B*46:01. Described as above.
Assay [5] has as its target HLA-B*15:01. Kind of assay: IEDB peptide-MHC binding, purified MHC/competitive/fluorescence; filed as Kd, often an IC50 or EC50 that approximates it; ≥ and ≤ were set here for values at or beyond the usual limits of such assays. As to conditions: source organism: Escherichia coli.
The target in assay [6] is HLA-B*08:01. Described as above. As to conditions: source organism: Escherichia coli.
The next assay deals with HLA-C*08:02. Briefly: IEDB peptide-MHC binding, purified MHC/direct/fluorescence; filed as Kd, often an IC50 or EC50 that approximates it; ≥ and ≤ were set here for values at or beyond the usual limits of such assays.
Assay [7] addresses HLA-A*02:19. Described as above. As to conditions: source organism: Francisella tularensis subsp. tularensis FSC033.
Another assay addresses HLA-A*02:12. Described as above. The settings on record: source organism: Francisella tularensis subsp. tularensis FSC033.
The target of the next assay is HLA-C*06:02. Described as above.
The target of assay [8] is HLA-A*02:11. Described as above. As to conditions: source organism: Francisella tularensis subsp. tularensis FSC033.
The target of assay [9] is HLA-A*69:01. Kind of assay: IEDB peptide-MHC binding, purified MHC/competitive/fluorescence; filed as Kd, often an IC50 or EC50 that approximates it; ≥ and ≤ were set here for values at or beyond the usual limits of such assays.
Assay [10] deals with HLA-A*02:19. Described as above. The settings on record: source organism: Human immunodeficiency virus type 1 (ELI ISOLATE).
Another assay concerns the target HLA-A*02:16. The description is as above. The settings on record: source organism: Human immunodeficiency virus type 1 (ELI ISOLATE).
A further assay addresses HLA-A*02:06. The assay is described as above.
The next assay has as its target HLA-A*02:03. The assay is described as above.
Assay [11] has as its target HLA-A*02:01. The assay is described as above.
Assay [12] has as its target HLA-A*02:11. The assay is described as above. The settings on record: source organism: Human immunodeficiency virus type 1 (ELI ISOLATE).
For the next assay, the target named is HLA-B*39:01. Described as above. The settings on record: source organism: Vaccinia virus WR.
The target of a further assay is HLA-B*07:02. Kind of assay: IEDB peptide-MHC binding, purified MHC/direct/fluorescence; filed as Kd, often an IC50 or EC50 that approximates it; ≥ and ≤ were set here for values at or beyond the usual limits of such assays. As to conditions: source organism: Camelpox virus M-96.
Another assay addresses HLA-B*51:01. Described as above. As to conditions: source organism: Camelpox virus M-96.
Setting [13] is: source organism: dengue virus type 2.
Where [14] appears, read: source organism: Mycobacterium tuberculosis.
The mark [15] stands for this setting: source organism: Escherichia coli.
Where [16] appears, read: source organism: Francisella tularensis subsp. tularensis FSC198.
[17] abbreviates: source organism: Mycobacterium tuberculosis C.
[18] abbreviates: source organism: Human immunodeficiency virus type 1 (ELI ISOLATE).
Where [19] appears, read: source organism: Vaccinia virus WR.
Setting [20] is: source organism: Camelpox virus M-96.

Bounds are passed on as bounds.

By Kd is commonly meant the free concentration of one partner at which half of the binding sites on the other are occupied at equilibrium, for simple one-to-one binding. Consider SEMGANFKA, for which the Kd with HLA-B*44:03 is 0.136 µM; with HLA-B*45:06 (setting [13]) it was not below 5 µM; in the assay with HLA-B*15:42 (setting [13]) it was not below 5 µM; with HLA-B*83:01 (setting [13]), not below 5 µM; with HLA-C*04:01 (setting [13]) it was not below 5 µM; with HLA-B*44:02 it was 15.9 µM. In addition, in the assay with HLA-B*18:01 (source organism: dengue virus type 1), the Kd amounted to 0.119 µM.
On to IPAPGLGAL, for which the Kd is 4.06 µM with HLA-B*15:09 (source organism: Mycobacterium tuberculosis str. Haarlem); 0.24 µM with HLA-A*69:01 [1]; not below 20 µM with HLA-B*15:01 [2] (setting [14]); not below 20 µM in the assay with HLA-A*11:01 (setting [14]); not below 20 µM in the assay with HLA-B*08:01 [3]; not below 20 µM in the assay with HLA-B*18:01 (setting [14]). For the same sequence, the Kd in the assay with HLA-B*15:17 (setting [14]), with HLA-B*57:01 (setting [14]), with HLA-A*01:01 (setting [14]), with HLA-B*58:01 (setting [14]), with HLA-B*27:05 (setting [14]) and with HLA-B*40:01 (setting [14]) was not below 20 µM throughout. Further, the dissociation constant (Kd) was 11.1 µM in the assay with HLA-A*26:01; not below 20 µM in the assay with HLA-B*48:01 (setting [14]); not below 20 µM in the assay with HLA-A*03:01 (setting [14]); not below 20 µM with HLA-A*31:01 (setting [14]); not below 20 µM in the assay with HLA-A*02:01 [4] (setting [14]); not below 20 µM with HLA-B*46:01 (setting [14]).
Turning to MERFSWHVA, the Kd was not below 20 µM with HLA-B*15:01 [5]; not below 20 µM with HLA-B*08:01 [6]; 4.81 µM with HLA-B*45:06 (setting [15]); not below 5 µM in the assay with HLA-B*15:42 (setting [15]); not below 5 µM with HLA-B*83:01 (setting [15]); not below 5 µM with HLA-C*04:01 (setting [15]).
In the case of YMYQYIQEL, the Kd with HLA-C*08:02 (setting [16]) was 0.736 µM; in the assay with HLA-A*02:19 [7], 0.002 µM; in the assay with HLA-A*02:12, 0.002 µM; in the assay with HLA-C*06:02 (setting [16]) it was 0.006 µM; with HLA-A*02:01 [4] (source organism: Francisella tularensis subsp. holarctica LVS) it was not above 0.001 µM; with HLA-A*02:11 [8], not above 0.001 µM.
Turning to FAPDRVGAL, the figures for the Kd in the assay with HLA-C*08:02 (setting [17]) and with HLA-C*06:02 (setting [17]) were 0.673 µM and 1.89 µM, respectively.
As for FLGRIWPS, the Kd in the assay with HLA-A*69:01 [9] (setting [18]) is not below 5 µM; in the assay with HLA-A*02:19 [10], 0.0018 µM; with HLA-A*02:16, not above 0.0001 µM; with HLA-A*02:06 (setting [18]), not above 0.0001 µM; in the assay with HLA-B*15:09 (setting [18]), not below 20 µM; with HLA-A*02:03 (setting [18]) it was 0.00024 µM. Besides, the results for the Kd with HLA-A*02:01 [11] (setting [18]) and in the assay with HLA-A*02:11 [12] were 0.00133 µM and not above 0.0001 µM, respectively.
Consider FVYSVSFHK, for which the Kd with HLA-B*45:06 (setting [17]), in the assay with HLA-B*15:42 (setting [17]), in the assay with HLA-B*83:01 (setting [17]) and with HLA-C*04:01 (setting [17]) was not below 5 µM each time.
On to YPAVINSNI, for which the Kd with HLA-A*69:01 [9] (setting [19]) was 0.596 µM; in the assay with HLA-A*02:06 (setting [19]) it was 4.11 µM; with HLA-B*15:09 (setting [19]), not below 20 µM; with HLA-A*02:03 (setting [19]), 3.82 µM; in the assay with HLA-A*02:01 [11] (setting [19]), not below 20 µM; with HLA-B*39:01, 2.81 µM. For the same sequence, the Kd with HLA-B*15:01 [2] (setting [20]), with HLA-A*11:01 (setting [20]), in the assay with HLA-B*18:01 (setting [20]), with HLA-B*15:17 (setting [20]), with HLA-B*57:01 (setting [20]) and with HLA-A*01:01 (setting [20]) was not below 20 µM in each case. The Kd with HLA-B*58:01 (setting [20]) is not below 20 µM; in the assay with HLA-B*27:05 (setting [20]), not below 20 µM; with HLA-B*40:01 (setting [20]) it was not below 20 µM; with HLA-B*48:01 (setting [20]), not below 20 µM; with HLA-A*03:01 (setting [20]), not below 20 µM; with HLA-B*07:02 it was 0.373 µM. Moreover, the Kd is not below 20 µM with HLA-A*31:01 (setting [20]), not below 20 µM in the assay with HLA-B*46:01 (setting [20]) and 0.296 µM with HLA-B*51:01.

For the origin of these results see the Immune Epitope Database (IEDB).
